According to a protein production outcome set (Wang et al. 2014):

Experiment: label from the status in PepcDB records

Sequence	protein production
MQQFATLSLASLLMLGTFTAFAAENGDAPASGWHIDDSATKGASGQQGMFDGVRLTEQQRQQMRDLMHQSRQDKPAFNTEDVKAMHKLVTAETFDEAAVRAQITRMMSVQIERQIQMTRVRNQMYNLLTPAQKEILELKHKQRMKEMQQQISMFNQMVAPSSGTTNHTETDSPELEHHHHHH	not failed
TLDPSAQAIAEAALARGVQAHQGQYGAVIMLETRTGRILAAATYPPFDPGNWRGKPDTQERVKNRAFLDAYEPGSTMKALTIAAALNDGITTPDTVYETPMSRHVGGRWGHTIGDAVDHPSSLTTQQVLRYSSNVGMSHIVEGFTYQKLRDYLAAYGFGQPVNLTGAVTAQGILKPIDKWNDLERATNSFGQGVSGTTLQVAAAYNAVANDGLYVTPRLIEGAPAGERHEVVRAASARTVREMLKAIVVEGKFASLEGYDLSGKTGTAQVATENGYSNSVYKSTYAGFFPSDTPRVTVAVMVHGAQGEHHGSQVAAPIFREIASGMLSEWGTAPE	failed
MAKVNITRDLIRRQIKERGALSFERRYHVTDPFIRRLGLEAELQGHSGCVNCLEWNEKGDLLASGSDDQHTIVWDPLHHKKLLSMHTGHTANIFSVKFLPHAGDRILITGAADSKVHVHDLTVKETIHMFGDHTNRVKRIATAPMWPNTFWSAAEDGLIRQYDLRENSKHSEVLIDLTEYCGQLVEAKCLTVNPQDNNCLAVGASGPFVRLYDIRMIHNHRKSMKQSPSAGVHTFCDRQKPLPDGAAQYYVAGHLPVKLPDYNNRLRVLVATYVTFSPNGTELLVNMGGEQVYLFDLTYKQRPYTFLLPRKCHSSGEVQNGKMSTNGVSNGVSNGLHLHSNGFRLPESRGHVSPQVELPPYLERVKQQANEAFACQQWTQAIQLYSKAVQRAPHNAMLYGNRAAAYMKRKWDGDHYDALRDCLKAISLNPCHLKAHFRLARCLFELKYVAEALECLDDFKGKFPEQAHSSACDALGRDITAALFSKNDGEEKKGPGGGAPVRLRSTSRKDSISEDEMVLRERSYDYQFRYCGHCNTTTDIKEANFFGSNAQYIVSGSDDGSFFIWEKETTNLVRVLQGDESIVNCLQPHPSYCFLATSGIDPVVRLWNPRPESEDLTGRVVEDMEGASQANQRRMNADPLEVMLLNMGYRITGLSSGGAGASDDEDSSEGQVQCRPS	failed
LVPLESDLSRAADLLNAGRKVAILAGRGALEAKEALRETAELLGAPVAKALLGKAVLPDDDPLTTGGIGILGTAPSQEIMQQCDTLLIIGSTFPYIEYYPRPNTAAGIQIDHDPQRIGLRYPVEVGLVGEAGETLRMLNKRLKRKQDRSFLERAQEQTRNWRRELRAMEGDRS	failed
MKEVLFISEMERGRAEIESRVSNIKTTQDFGYREKIKEKKDASTAYAACISELLLEEKVKKIAVAYDFPIFYSNYLTEAGFTIVPVKSPFRKMRSVKGPEEIEAIKYAQMAGEKAMEAAITLIADAEEKDGVLYFEGQVLTGAKVNSVIDHTLLDFGCEAEETIVSCGEDTSNPHGTTEGPLRANAPIILDIFPRSKKKRYFADMTRTVLRGEASEKLKEMYETVLVAQQKALEMVKPGIHSSEIHRAVCDLFEARGYHTYRSGSKAGFTHSTGHGVGLDIHELPSVGESGVLLETGNVITIEPGLYYPGIGGIRLEDMVLVTKTGYENFTGLEKKFVLKSFYNLEHHHHHH	failed
MKFPGQRKSKHYFPVKTRDPLLEQLTQQPQPFATYISGIDQTLVDIEAKVEDELLSRYGLPKGNSTLINDEQAHTLYTELKQNGLISDEFAGGTIGNTVHNYSILADDRSVLFGVMSQNIEVGSYAYRYLCNTSSKVDLNYLQPVDGPIGRCFTLISDCGERTFAISKGAMDKLTPEYIDKDIVQGSSALVLTAYLMRASGGDRITDAAMCAIEYAKAAEVPVVLTLGTRFLIEEDPIWWQNFIKEHVTILAMNEDEGEALTGFRDPLLASEKALEWCDMVLTTAGPIGLYTAGYTDDAEKRETSHTLLPGAIPEFNRYEFSRPKLKSDCENPIKVYAHISPYMGGPEKIGNTNGAGDGALSALLHDLAANTFHKTNVPGSSKHKRDGLCYSSFSQICKYANRVAYEVLAQHSPRLSRGLPEREDSLEESYWER	failed
DTVLIVNKKAEIIWINNNITNLLGYLPDELLGKSIECLVPSRTREKHVNLRNSFINKPNKRSMNQGSGLWAVHKKNHEIPVCIDLNHYEESGEKFTVCSIRL	failed
MDRHTTEGWRRWAARLGAAAMALLLAACAAPRQQAASVDELPSWNDGPSRTAIVEFVRAVTRSGGPDFVAADERIAVFDNDGTLWSEQPMYFQMLFALDRVKSMAPRHPDWARRQPFKAALQDDHAALAKGGDVALMKIVGATHTDMSTDTFTRSVRYWASTARHPRFDRLYTELTFAPMRELLDYLRAHGFKTYIVSGGETEFMRSWTQQAYGIPPEQVIGSSFVTTYGVRDGEPTLWRHGKLEFNDDGPGKPVAIQRYIGRRPILAFGNSDGDLQMLQWTAAGDGKRFAGLVHHTDAQREWAYDRDSRIGRLDRALDEARRQDWTVVDMKTEWKRVYAFEQP	not failed
MFEISRSRAKAMRPFLALATATVMMLSLAACSSSDNSSTNAQGNTDVAVGGQRFSTADQETAKLGSDAQPGQFPRTVVHAAGTTEITTKPERVVVLDTGELDSVLSLGITPVGMTTTKGANPVPSYLADKVKDVERVGTINELNIEAIAALKPDLIIGSQLRADKLYPQLSDIAPTVFSIRPGSPWKENFLLVGEALGMEKEAEEKLNEYADRVAELKNNVPQNTEVSLVRFMPNKLRLYGNKSLIGVVLADAGLARPEKQNVDDLAVEISPENIDQAAGSVIFYTSYGKPDATGETAVVEGPAWKNLEAVAAGKAHRVNDDVWFLGLGPTGAMEIVSDLHDYLLKK	failed
MHHQSVLHSGYFHPLLRSWQTAASTVSASNLIYPIFVTDVPDDVQPIASLPGVARYGVNQLEEMLRPLVEAGLRCVLIFGVPSRVPKDEQGSAADSEDSPTIEAVRLLRKTFPSLLVACDVCLCPYTSHGHCGLLSENGAFLSEESRQRLAEVALAYAKAGCQVVAPSDMMDGRVEAIKAALLKHGLGNRVSVMSYSAKFASCFYGPFRDAAQSSPAFGDRRCYQLPPGARGLALRAVARDIQEGADMLMVKPGLPYLDMVREVKDKHPELPLAVYQVSGEFAMLWHGAQAGAFDLRTAVLETMTAFRRAGADIIITYFAPQLLKWLKEE	failed
MPLTPGTLLAGRYELLALLGEGGSAQVYRAQDGLLGREVALKVMHDYLPESDRSRFLREVRTLARLTHPGVVPVLDLGQEPEAGRPFFTMPLLTGGPITRLGPLEDAPGPLARFLTAAAFASRALHHVHSHGIVHRDLTPGNVLLDDTGLPRIMDFGLVALSEQTRHLTRSGVTLGTPAYMAPEQAKGGGVDARSDLYALGAVLYRVACGSPPFVGDSDQSVLYQHVYEPVPDPRDLNPAVPDAVARVLLWLLAKRADRRPQSGAALAHLWALARRDLWTTHARGQYRGGRARTGEHPDGPARVSDMQELWSVALPGEVTWPAAVVGEGDLVAVGTRGGQLVLTHTSGRPFATYAARDEVTAPATLIGGHVLYGAWDGTLRRVELQSGSEVWRHQARAEFTGAPTVWGGRLLAPSRDGHLHALSLRTGELAWAYRAGGSLAASPLVWAGAALQCDETGWLHALDARSGTPLWKVEVGTVHATPALLPGPPGTATLVIATWEGEVHAIGLEVQNGRAALAGEDAIRWTYDVEDEVWASPALTALDLPPDSGAAPDASAAPGGVVVVAGWGGKVRGLRLADGEDLWERTLDGRVTASPVISAGLVFLATEGGELLALDVRNGEVRWTCRERSGVQATPLAASGTLYVAFMDGTLRAYRNAHPEWRSEQEG	failed
MRHPYVFPACVAGALLVAGCAPKQTDEETVERAFQDVNVVDETNLSEVMLTVTDPNEAISYYQRTLKSDPDRLDLRRGLATSFVRAKRFTEAASAWEKVTELKDSTHEDSVNYADALIRSGDWDTAEKVLDTVPPTYETFKRYRLEAMMADANKEWRKADSFYETAIGLTTTPAGAFNNWGYSKLTRGDFSGAEKLFGQAIRQDPTLFTAKNNLVLARSAQRKYTLPVVPMTQSERAQLLHTMALSAVRQGDIQTSKSLLRDAIDTHPQHFDAAVRALEALERSG	failed
MILKSSIDRLLQTIDIVEVISSYVNLRKSGSSYMACCPFHEERSASFSVNQIKGFYHCFGCGASGDSIKFVMAFEKLSFVEALEKLAHRFNIVLEYDKGVYYDHKEDYHLLEMVSSLYQEELFNAPFFLNYLQKRGLSLESIKAFKLGLCTNRIDYGIENKGLNKDKLIELGVLGKSDNDQKTYLRFLDRIMFPIYSPSAQVVGFGGRTLKEKAAKYINSPQSKLFDKSSLLYGYHLAKEHIYKQKQVIVTEGYLDVILLHQAGFKNAIATLGTALTPSHLPLLKKGDPEILLSYDGDKAGRNAAYKASLMLAKEQRRGGVILFENNLDPADMIANGQIETLKNWLSHPMAFIEFVLRRMADSYLLDDPLEKDKALKEMLGFLKNFSLLLQSEYKPLIATLLQAPLHVLGIRERVSFQPFYPKTEKPNRPQRFAHVSSAPSLEFLEKLVIRYLLEDRSLLDLAVGYIHSGVFLHKKQEFDALCQEKLDDPKLVALLLDANLPLKKGGFEKELRLLILRYFERQLKEIPKSSLPFSEKMICLKKARQAIMKLKQGELVAI	failed
MDTDNNLTFVDFYYRWLEITKLDIINDTSYKRYITAIKAFKDCFGNKLISDIDSLSYQKFLKDYGRGHFLNNGQLRPRTSNTVSKMNNCLKQAFESAVEQGYIKKNLEHHHHHH	failed
MHVPIRLLEWFKVEQTLVIQKKKRFGFSQGIGITLLIAIVAKYLAELPFLNIMGQLVIAILIGMVWRAAIGVPHDAIAGTNFASKKLLRFGIILLGMRLNLVDIAKAGPKVLVIAAVVITFTIFVVYGLTKVFKVEKKLGILTACGTAICGAAAVVAIAPQVKAKDDETAVGAAIIAILGTIFTLIYTLLYPVLGLSPYGYGVFSGATLHEIAHVIAAAAPGGSAAVDIAVIVKLTRVAMLVPVAILIGLWFGKSEGSKEKRSWRDLPIPWFIFGFLAMSAVHSLGIIPEVVAGYIVVIAYMLIAMAMAGLGLNVEFKTFRKLGSKAFVAGLIGSVCLSVLGYVLVYALGFM	failed
MSMTKSEVCVIIAAKNAARTIAVAIASALREPEAAEVVVVDDGSTDNTAEVARSADDGSGRLKVMRLDVNRGPSFARNAAIAGSKAPFISILDADDFFLEGRFRNLFAAADWDFAADNIMLIRDDATNDATKIVAPDFAADPEFLDFERFVEGNISRRRVQRGELGFLKPVISRAFLDRHRLRYDESLRLGEDYELYARAVAHGARFKVIRSCGYGAIVRADSLSGRHKTQDLKRLADADLALLAIDSLPEGSKAVLRRHERHVRDKYRLRNFLDVKAERGLASAAAYAFASQSNLVPIVQGVASDKLEALFRRVGLVSRQKRVPPLRFLMAGTSAGKER	failed
NEHEYAYIMQTSGSTGKPKRIAVSYSNLHCYISQIDKLFPLNAQDRVGQYSDLTFDLSVHDIFYSLISGACLYVVPELAKLSPAEFIHHHQLTVWLSVPTVIELALQRQTLTPHSLPSLRLSFFCGQALLHDLAEQWQQATQQPVINLYGPTECTIAVTYHRFVAHSGMASV	failed
MNDNVLRYIKRVFNLITILGFVATIVGGIYLWRLGAFQNQAVLQQLIVAHRFLGPLIFLCMQILQVIVPIIPGGITMAAGVMIFGPVWGFVYNYFGIVAGSFLLFHFGKKYGSSLAKTFVKEKTYNKYMAWLDKGQKRFNIVFALLILSPIAPDDALVLIASQTKMSWKFFTWSILLCKPLPILLYSYLLIFGGDLLGHIL	failed
